Reference: US20210002363A1 (PHANES THERAPEUTICS, published 2021)
One block for each binder: values may come before it.

What was measured:
[1] = target: T1, Recombinant extracellular domain of human FOLR1 (Novoprotein, Cat#: C784) (human, UniProt P15328 25-233, limits assumed); experiment: ELISA on immobilized FOLR1 extracellular domain; O.D. 450 nm
T1 construct: Bought reagent; also called recombinant FOLR1; immobilized FOLR1 extracellular domain

[2] = target: T1, Recombinant extracellular domain of …; experiment: as above; remark: listed apart in the source
[3] = target: T2, FOLR1 on SK-OV-3 cells (ATCC HTB-77) (Homo sapiens (Human), UniProt P15328 25-234); experiment: FACS on SK-OV-3 cells; Alexa Fluor 488 F(ab')2 goat anti-human IgG Fc; MFI
T2 construct: Endogenous FOLR1 of the cell line; also called cells that are known to express FOLR1
T2 sequence (P15328 25-234 limits assumed): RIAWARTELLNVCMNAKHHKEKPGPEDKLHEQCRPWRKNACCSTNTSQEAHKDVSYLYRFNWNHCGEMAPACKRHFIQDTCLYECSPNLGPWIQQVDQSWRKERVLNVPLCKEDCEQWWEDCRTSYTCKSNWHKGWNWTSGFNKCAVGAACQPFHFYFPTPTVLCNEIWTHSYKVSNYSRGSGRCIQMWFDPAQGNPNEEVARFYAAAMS
Method: To assess the binding of the chimeric anti-FOLR1 mAbs to cells that are known to express FOLR1, SK-OV-3 (ATCC® HTB-77™) cells were plated at 80,000 cells per well on a 96-well non-binding U-bottom plate (Greiner Bio-One, Cat#: 650901). In some experiments, 90,000 cells per well were used. The cells were incubated in 50 μL FACS buffer (HBSS with 0.1% BSA and 0.05% sodium azide) containing mAbs at different concentrations on ice for 15 minutes. After wash, cells were incubated in 50 μL FACS buffer containing 3.5 μg/mL F(ab′)2-Goat anti-Human IgG Fc conjugated to Alexa Fluor® 488 (Invitrogen, Cat#: H10120) on ice for 15 minutes in dark and washed again. Cells were analyzed using an Attune NxT flow cytometer. MFI, mean fluorescence intensity.

[4] = target: T1, Recombinant extracellular domain of …; experiment: SPR (Biacore 8k), mAb captured on protein A chip, recombinant FOLR1 as analyte, 1:1 model
Method: The interaction of the chimeric anti-FOLR1 mAbs and FOLR1 was measured by Surface Plasmon Resonance (SPR) (Biacore 8k, GE Healthcare). Briefly, an anti-FOLR1 mAb was immobilized to a protein A sensor chip (GE Healthcare, Cat#: 29-1275-56) in HBS-P buffer (0.01 M HEPES pH 7.4, 0.15 M NaCl, 0.05% v/v Surfactant P20) with an injection flow rate at […]. The recombinant FOLR1 (Novoprotein, Cat#: C784) at variant concentrations was loaded with the flow rate of 30 μL/min in HBS-P buffer. Following antigen loading, the surface was regenerated with 10 mM glycine-HCl (pH 1.5). Sensor grams were fit with a 1:1 binding model using Biacore 8k evaluation software (GE Healthcare).

[5] = target: T1, Recombinant extracellular domain of …; experiment: ELISA on plate-coated recombinant human FOLR1 extracellular domain; anti-human IgG-HRP; O.D. 450 nm
Method: The Purified chimeric mAbs were tested in an ELISA assay for their ability to bind to immobilized human FOLR1. Recombinant extracellular domain of human FOLR1 (Novoprotein, Cat#: C784) in carbonate coating buffer was coated on a 96-well plate at room temperature for 1 hour. The plate is blocked by 5% BSA in TBST for 1 hour at room temperature. In each well of an individual plate, mAbs at various concentrations were incubated for 1 hour at room temperature. The plate was washed and the binding to FOLR1 was detected by anti-human IgG conjugated to horseradish peroxidase (hIgG-HRP) (ThermoFisher Scientific, Cat#: H10007) with incubation for 1 hour at room temperature. Then after washing, the ELISA was developed using One-step Detection Solution (ThermoFisher Scientific, Cat#: 34028) and measured as the absorbance at 450 nm.

[6] = target: T2, FOLR1 on SK-OV-3 cells (ATCC HTB-77); experiment: FACS on SK-OV-3 cells; MFI
[7] = target: T1, Recombinant extracellular domain of …; experiment: ELISA on immobilized FOLR1 extracellular domain; O.D. 450 nm; remark: listed apart in the source
[8] = target: T1, Recombinant extracellular domain of …; experiment: as above; remark: listed apart in the source
[9] = target: T2, FOLR1 on SK-OV-3 cells (ATCC HTB-77); experiment: FACS on SK-OV-3 cells; MFI; remark: listed apart in the source
[10] = target: T1, Recombinant extracellular domain of …; experiment: ELISA on immobilized FOLR1 extracellular domain; O.D. 450 nm; remark: listed apart in the source
[11] = target: T1, Recombinant extracellular domain of …; experiment: as above; remark: listed apart in the source
[12] = target: T2, FOLR1 on SK-OV-3 cells (ATCC HTB-77); experiment: FACS on SK-OV-3 cells; MFI; remark: listed apart in the source

T1 sequence (P15328 25-233 limits assumed): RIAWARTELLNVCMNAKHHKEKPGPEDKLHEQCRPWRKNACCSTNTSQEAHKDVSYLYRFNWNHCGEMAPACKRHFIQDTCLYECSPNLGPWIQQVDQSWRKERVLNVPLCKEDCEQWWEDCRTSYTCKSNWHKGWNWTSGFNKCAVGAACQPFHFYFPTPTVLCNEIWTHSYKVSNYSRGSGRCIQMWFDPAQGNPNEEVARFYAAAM

EC50 (read off the curve) [1]: 0.1 to 0.2 nM
EC50 (read off the curve) [2]: 0.2 to 0.3 nM
EC50 (read off the curve) [3]: ~0.4 nM
Kd [4]: 0.352 nM
EC50 (read off the curve) [5]: ~0.1 nM
B1: chimeric anti-FOLR1 mAb F5 (antibody, V domains shown)
VH: EVQLVESGGELVKPGGSLKLSCAVSGFTFSNYGMSWVRQTPDKRLEWVATISSGGSYTYYPDSVKGRFTISRDNDKNTLYLQMSSLKSEDTAMYYCSTQGSSGYVGYWGQGTTLTVSS
VL: DIQMTQSPSSLSAFLGGKVTITCKASQDITNFIGWYQHKPGKGPRLLISYTSILESGIPSRFSGSGSGRDYSFSISNLEPEDIATYYCLQYYNLWTFGGGTKLEIK
notes: also called Chimeric mAb F5

EC50 (read off the curve) [6]: ~3 nM
B2: F10-H1L3 (antibody, V domains shown)
VH: EVQLVQSGAEVKKPGSSVKVSCKASGYAFSSSWMNWVRQAPGQGLEWIGRIYPGDGYTHYNGMFKGRASLTADKSTSTGYMELSSLRSEDTAVFFCTRHGDFPYWYFDVWGRGTLVTVSP
VL: DIQMTQSPSTLSASVGDRVTITCRASENIDSYLAWYQQKPGRAPKLLVYAATNLAVGVPSRFSGSGSGTEYTLTISSLQSEDFATYYCQHHYSTPPTFGQGTKLEIK
notes: also called humanized F10 mAb H1L3

EC50 (read off the curve) [1]: ~0.3 nM
B3: F5-H2L1 (antibody, V domains shown)
VH: EVQLVESGGGLVQPGGSLRLSCAVSGFTFSNYGMSWVRQAPGKGLEWVATISSGGSYTYYPDSVKGRFTISRDNSKNTLYLQMNSLRAEDTAVYYCSTQGSSGYVGYWGQGTLVTVSS
VL: DIQMTQSPSSVSASVGDRVTITCKASQDITNFIGWYQHKPGKAPKLLISYTSILESGVPSRFSGSGSGRDYTLTISSLQPEDFATYYCLQYYNLWTFGGGTKVEIK
notes: also called humanized F5 mAb H2L1

EC50 (read off the curve) [7]: ~0.4 nM
B4: F5-H4L1 (antibody, V domains shown)
VH: EVQLVESGGGLVQPGGSLRLSCAVSGFTFSNYGMSWVRQAPGKGLEWVATISSGGSYTYYPDSVKGRFTISRDNDKNTLYLQMSSLRAEDTAVYYCSTQGSSGYVGYWGQGTLVTVSS
VL: DIQMTQSPSSVSASVGDRVTITCKASQDITNFIGWYQHKPGKAPKLLISYTSILESGVPSRFSGSGSGRDYTLTISSLQPEDFATYYCLQYYNLWTFGGGTKVEIK
notes: also called humanized F5 mAb H4L1

EC50 (read off the curve) [1]: ~0.4 nM
B5: F5-H1L1 (antibody, V domains shown)
VH: EVQLLESGGGLVQPGGSLRLSCAVSGFTFSNYGMSWVRQAPGKGLEWVATISSGGSYTYYPDSVKGRFTISRDNSKNTLYLQMNSLRAEDTAVYYCSTQGSSGYVGYWGQGTLVTVSS
VL: DIQMTQSPSSVSASVGDRVTITCKASQDITNFIGWYQHKPGKAPKLLISYTSILESGVPSRFSGSGSGRDYTLTISSLQPEDFATYYCLQYYNLWTFGGGTKVEIK
notes: also called humanized F5 mAb H1L1

EC50 (read off the curve) [7]: ~0.4 nM
B6: F5-H4L2 (antibody, V domains shown)
VH: EVQLVESGGGLVQPGGSLRLSCAVSGFTFSNYGMSWVRQAPGKGLEWVATISSGGSYTYYPDSVKGRFTISRDNDKNTLYLQMSSLRAEDTAVYYCSTQGSSGYVGYWGQGTLVTVSS
VL: DIQMTQSPSSVSASVGDRVTITCKASQDITNFIGWYQHKPGKAPKLLISYTSILESGVPSRFSGSGSGTDYTLTISSLQPEDFATYYCLQYYNLWTFGGGTKVEIK
notes: also called humanized F5 mAb H4L2

EC50 (read off the curve) [8]: ~0.2 nM
EC50 (read off the curve) [3]: ~0.9 nM
Kd [4]: 0.704 nM
EC50 (read off the curve) [5]: ~0.2 nM
B7: chimeric anti-FOLR1 mAb F10 (antibody, V domains shown)
VH: QVQLQQSGPELVKPGASVKISCKASGYAFSSSWMNWVRQRPGKGLEWIGRIYPGDGYTHYNGMFKGKATLTADKSSSTGYMQLSSLTSEDSAVYFCTRHGDFPYWYFDVWGTGTTVTVSS
VL: DIQMTQSPASLSASVGESVTITCRASENIDSYLAWYQQKQGKSPQLLVYAATNLAVGVPSRFSGSGSGTQYTLKINSLQSEDVARYYCQHHYSTPPTFGGGTKLEIK
notes: also called Chimeric mAb F10

binding result [9]: binds
binding result [10]: binds
B8: F20-H2L2 (antibody, V domains shown)
VH: QVQLVQSGAEVKKPGSSVKVSCKASGYTFASYYLYWVRQAPGQGLEWIGEINPRSGGTNFNEKFKSRATVTVDASTSTAYMELSSLRSEDTAVYYCSRSGRLRGFYTMDYWGQGTLVTVSS
VL: DIVMTQSPDSLAVSLGERATINCKAGENVGSYVSWYQQKPGQSPKLLIYGASNRYTGVPDRFSGSGSATDFTLTISSLQAEDVAVYYCGQTYRFLTFGQGTKVEIK
notes: also called humanized F20 mAb H2L2

EC50 (read off the curve) [11]: ~0.3 nM
B9: F20-H1L4 (antibody, V domains shown)
VH: QVQLVQSGAEVKKPGSSVKVSCKASGYTFASYYLYWVRQAPGQGLEWIGEINPRSGGTNFNEKFKSRATVTVDKSTSTAYMELSSLRSEDTAVYYCSRSGRLRGFYTMDYWGQGTLVTVSS
VL: DIQMTQSPSTLSASVGDRVTITCKAGENVGSYVSWYQQKPGKAPKLLIYGASNRYTGVPARFSGSGSATEFTLTISSLQPEDFATYYCGQTYRFLTFGQGTKVEVK
notes: also called humanized F20 mAb H1L4

EC50 (read off the curve) [12]: ~1 nM
EC50 (read off the curve) [11]: ~0.3 nM
B10: F20-H3L4 (antibody, V domains shown)
VH: QVQLVQSGAEVKKPGSSVKVSCKASGYTFASYYLYWVRQAPGQGLEWIGEINPRSGGTNFNEKFKSKATVTVDKSTNTAYMELSSLRSEDTAVYYCSRSGRLRGFYTMDYWGQGTLVTVSS
VL: DIQMTQSPSTLSASVGDRVTITCKAGENVGSYVSWYQQKPGKAPKLLIYGASNRYTGVPARFSGSGSATEFTLTISSLQPEDFATYYCGQTYRFLTFGQGTKVEVK
notes: also called humanized F20 mAb H3L4

EC50 (read off the curve) [10]: ~0.3 nM
B11: F20-H2L3 (antibody, V domains shown)
VH: QVQLVQSGAEVKKPGSSVKVSCKASGYTFASYYLYWVRQAPGQGLEWIGEINPRSGGTNFNEKFKSRATVTVDASTSTAYMELSSLRSEDTAVYYCSRSGRLRGFYTMDYWGQGTLVTVSS
VL: DIQMTQSPSTLSASVGDRVTITCKAGENVGSYVSWYQQKPGKAPKLLIYGASNRYTGVPARFSGSGSATEFTLTISSLQPDDFATYYCGQTYRFLTFGQGTKVEVK
notes: also called humanized F20 mAb H2L3

binding result [9]: binds
binding result [10]: binds
B12: F20-H2L1 (antibody, V domains shown)
VH: QVQLVQSGAEVKKPGSSVKVSCKASGYTFASYYLYWVRQAPGQGLEWIGEINPRSGGTNFNEKFKSRATVTVDASTSTAYMELSSLRSEDTAVYYCSRSGRLRGFYTMDYWGQGTLVTVSS
VL: DIVMTQSPDSLAVSLGERATINCKAGENVGSYVSWYQQKPGQPPKLLIYGASNRYTGVPDRFSGSGSATDFTLTISSLQAEDVAVYYCGQTYRFLTFGQGTKVEIK
notes: also called humanized F20 mAb H2L1
